The supplement of paper PMC9112550, “Optimization of the antimicrobial peptide Bac7 by deep mutational scanning” (BMC Biology, 2022)

test system: Escherichia coli TOP10; test: shrunken log2 fold change of peptide-encoding DNA abundance (4.5 h post-induction vs induction); higher = less antimicrobial activity (less host growth inhibition); settings: time post-induction: 4.5 h; library: site-saturation at positions 5, 18, 19, 20
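Also: peptides expressed intracellularly from a pBAD plasmid library in pooled LB shake-flask culture, induced with 0.3% L-arabinose, DNA abundance read by NGS, three biological replicates, DESeq2 with apeglm shrinkage.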

Sequence | shrunken log2 fold change
RRIRWRPPRLPRPRPRPAKTPRP | 0.0165
RRIRQRPPRLPRPRPRPYNGPRP | -0.631
RRIRKRPPRLPRPRPRPVTHPRP | 0.0561
RRIRSRPPRLPRPRPRPCQRPRP | -0.0305
RRIRQRPPRLPRPRPRPHPDPRP | -0.0624
RRIRTRPPRLPRPRPRPDPWPRP | 0.0451
RRIRYRPPRLPRPRPRPMLTPRP | -0.0378
RRIRLRPPRLPRPRPRPYPAPRP | -0.368
RRIRHRPPRLPRPRPRPFSMPRP | -0.0138
RRIRERPPRLPRPRPRPLGWPRP | 0.335
RRIRCRPPRLPRPRPRPNNDPRP | -0.643
RRIRHRPPRLPRPRPRPCQPPRP | -0.0284
RRIRHRPPRLPRPRPRPFSWPRP | -0.0533
RRIRERPPRLPRPRPRPHTLPRP | -0.571
RRIRLRPPRLPRPRPRPQQAPRP | -0.0623
RRIRKRPPRLPRPRPRPICHPRP | 0.132
RRIRGRPPRLPRPRPRPKANPRP | 0.836
RRIRWRPPRLPRPRPRPLQKPRP | 1.73
RRIRGRPPRLPRPRPRPVIPPRP | 0.000617
RRIRNRPPRLPRPRPRPYDLPRP | -0.166
RRIRARPPRLPRPRPRPEHAPRP | 0.564
RRIRCRPPRLPRPRPRPNGFPRP | -0.0899
RRIRNRPPRLPRPRPRPAAFPRP | -0.0633
RRIRERPPRLPRPRPRPWARPRP | -0.0915
RRIRWRPPRLPRPRPRPMWNPRP | -0.0699

Sequence | shrunken log2 fold change
RRIRARPPRLPRPRPRPYIVPRP | -0.882
RRIRVRPPRLPRPRPRPWYAPRP | -0.299
RRIRERPPRLPRPRPRPQIQPRP | 0.136
RRIRLRPPRLPRPRPRPRRIPRP | 0.214
RRIRCRPPRLPRPRPRPWNAPRP | -0.129
RRIRCRPPRLPRPRPRPPNDPRP | 0.383
RRIRTRPPRLPRPRPRPDGHPRP | -0.102
RRIRLRPPRLPRPRPRPLYEPRP | -0.488
RRIRCRPPRLPRPRPRPKCWPRP | 0.302
RRIRIRPPRLPRPRPRPYNTPRP | -0.725
RRIRQRPPRLPRPRPRPIIWPRP | 0.0173
RRIRMRPPRLPRPRPRPPDGPRP | 1.41
RRIRWRPPRLPRPRPRPYSKPRP | -0.492
RRIRKRPPRLPRPRPRPAYCPRP | 0.0801
RRIRKRPPRLPRPRPRPRSTPRP | 0.177
RRIRMRPPRLPRPRPRPQDRPRP | 0.179
RRIRERPPRLPRPRPRPGNLPRP | -0.17
RRIRERPPRLPRPRPRPFYYPRP | -0.618
RRIRMRPPRLPRPRPRPAQFPRP | -0.107
RRIRYRPPRLPRPRPRPKMNPRP | -0.616
RRIRLRPPRLPRPRPRPVHFPRP | -0.272
RRIRMRPPRLPRPRPRPWCAPRP | 0.204
RRIRDRPPRLPRPRPRPTCDPRP | 0.224
RRIRDRPPRLPRPRPRPKCMPRP | -0.153
RRIRMRPPRLPRPRPRPWDWPRP | 0.794

Sequence | shrunken log2 fold change
RRIRWRPPRLPRPRPRPNMHPRP | -0.00977
RRIRERPPRLPRPRPRPGGMPRP | -0.02
RRIRMRPPRLPRPRPRPVWRPRP | 0.947
RRIRARPPRLPRPRPRPMCQPRP | 0.13
RRIRLRPPRLPRPRPRPPSFPRP | -0.244
RRIRGRPPRLPRPRPRPMPAPRP | 1.29
RRIRDRPPRLPRPRPRPVELPRP | -0.0194
RRIRARPPRLPRPRPRPINMPRP | -0.346
RRIRNRPPRLPRPRPRPQYQPRP | -0.317
RRIRYRPPRLPRPRPRPHQHPRP | 0.0599
RRIRMRPPRLPRPRPRPHSGPRP | 0.00795
RRIRPRPPRLPRPRPRPHECPRP | -1.31
RRIRARPPRLPRPRPRPFRRPRP | -0.0278
RRIRKRPPRLPRPRPRPMGQPRP | 0.0265
RRIRVRPPRLPRPRPRPYHPPRP | -0.406
RRIRDRPPRLPRPRPRPGHAPRP | 0.648
RRIRARPPRLPRPRPRPSDDPRP | 0.282
RRIRARPPRLPRPRPRPMDHPRP | 0.267
RRIRWRPPRLPRPRPRPWCDPRP | -0.0997
RRIRFRPPRLPRPRPRPKRTPRP | 0.0846
RRIRQRPPRLPRPRPRPVYAPRP | 0.16
RRIRFRPPRLPRPRPRPWVNPRP | -0.753
RRIRGRPPRLPRPRPRPCANPRP | 0.0504
RRIRFRPPRLPRPRPRPWEKPRP | -0.0348
RRIRNRPPRLPRPRPRPDYRPRP | -0.668
